Changes are numbered by the printed parent chain.
B1: MOR13657 (antibody, human IgG1, lambda, V domains shown)
VH: QVQLVQSGAEVKKPGASVKVSCKASGYTFTSYDIHWVRQAPGQGLEWMGRIDPYSGNTNYAQKFQGRVTMTRDTSISTAYMELSRLRSEDTAVYYCARGSFYTRDSYFDVWGQGTLVTVSS
VL: DIALTQPASVSGSPGQSITISCTGTSSDVGTYNQVSWYQQHPGKAPKLMIYGVSKRPSGVSNRFSGSKSGNTASLTISGLQAEDEADYYCSARDGWSEYVFGGGTKLTVLG
notes: Tested as IgG
B2: MOR13658 (antibody, human IgG1, lambda, V domains shown)
VH: B1 VH
VL: B1 VL with S91A, A92S, R93A, G95H, W96S, S97Y, E98H, Y99T
notes: Tested as IgG
B3: MOR12920 (antibody, human IgG1, lambda, V domains shown)
VH: B1 VH with S31G, D33Y, I34M, R50D, D52E, S55H, N57K, T58P, N59L
VL: B1 VL with K44N, A92S, G95L, W96I, S97G, E98H
B4: MOR12922 (antibody, human IgG1, lambda, V domains shown)
VH: B1 VH with S31G, D33Y, I34M, R50V, N57W, N59E
VL: B1 VL with A92S, G95L, W96I, S97G, E98H
B5: MOR13667 (antibody, human IgG1, lambda, V domains shown)
VH: B1 VH
VL: B1 VL with S91Q, R93W, G95Y, W96R, S97Q, E98T, Y99I
B6: MOR13668 (antibody, human IgG1, lambda, V domains shown)
VH: B1 VH
VL: B1 VL with S91Q, A92V, R93W, G95S, W96D, S97Q, E98A, Y99M
B7: MOR13669 (antibody, human IgG1, lambda, V domains shown)
VH: B1 VH
VL: DIALTQPASVSGSPGQSITISCTGTSSDVGTYNQVSWYQQHPGKAPKLMIYGVSKRPSGVSNRFSGSKSGNTASLTISGLQAEDEADYYCSTATAMTVSLVFGGGTKLTVLG
B8: MOR13670 (antibody, human IgG1, lambda, V domains shown)
VH: B1 VH
VL: B1 VL with S91Q, A92V, R93A, G95Q, W96G, S97W, E98H, Y99Q
B9: MOR13656 (antibody, human IgG1, lambda, V domains shown)
VH: B1 VH
VL: DIALTQPASVSGSPGQSITISCTGTSSDVGTYNQVSWYQQHPGKAPKLMIYGVSKRPSGVSNRFSGSKSGNTASLTISGLQAEDEADYYCAVRDSVWHVFGGGTKLTVLG
B10: MOR13659 (antibody, human IgG1, lambda, V domains shown)
VH: B1 VH
VL: B9 VL with A91G, V92S, D94T, V96H, W97N, H98W
B11: MOR13660 (antibody, human IgG1, lambda, V domains shown)
VH: B1 VH
VL: B9 VL with D94G, V96Q, W97T, H98L
B12: MOR13661 (antibody, human IgG1, lambda, V domains shown)
VH: B1 VH
VL: B9 VL with A91G, V92S, V96W, W97A
B13: MOR13662 (antibody, human IgG1, lambda, V domains shown)
VH: B1 VH
VL: B7 VL with S91Y, T92S, A93R, T94A, A95K, M96T, T97H, V98W, S99T, L100D
B14: MOR13663 (antibody, human IgG1, lambda, V domains shown)
VH: B1 VH
VL: B1 VL with A92V, R93W, D94T, G95S, W96I, S97K, E98V, Y99F
B15: MOR13664 (antibody, human IgG1, lambda, V domains shown)
VH: B1 VH
VL: B1 VL with R93Y, G95A, W96S, S97T, E98Q, Y99V
B16: MOR13665 (antibody, human IgG1, lambda, V domains shown)
VH: B1 VH
VL: B9 VL with A91Q, V92S, R93A, D94A, S95I, V96A, W97T, H98S

target: T1, human HER3 endogenously expressed on human cancer cells (SK-Br-3, BT-474, MCF7) (human, UniProt P21860 20-1342); assay: cell-based or functional assay

First: B1
Second: B2
The “BT-474 proliferation % inhibition” value of the first is lower: 30% for the first, 34% for the second.

B1 and B2 are within 1.5-fold of each other in “BT-474 proliferation IC50” value: 0.473 nM for the first, 0.423 nM for the second.

Going from B1 to B2, the “SK-Br-3 proliferation % inhibition” value rises from 39% to 42%.

Going from B3 to B4, the “SK-Br-3 proliferation % inhibition” value rises from 32% to 36%.

B1 and B2 are within 1.5-fold of each other in “SK-Br-3 proliferation IC50” value: 0.179 nM for the first, 0.191 nM for the second.

Compared with B3, B4 is 4.1-fold lower in “SK-Br-3 proliferation IC50” value: 2.91 nM for the first, 0.709 nM for the second.

First: B2
Second: B3
The “MCF7 proliferation % inhibition” value of the first is higher: 49% for the first, 22% for the second.

For B4, the “MCF7 proliferation % inhibition” value was 27%.

First: B2
Second: B3
The “MCF7 proliferation IC50” value of the first is 11-fold lower: 0.174 nM for the first, 1.92 nM for the second.

In the case of B4, the “MCF7 proliferation IC50” value is reported as 0.467 nM.

target: T1, human HER3 endogenously expressed on …; assay: cell-based or functional assay; remark: another data set of the same source

Compared with B1, B2 is higher in “BT474 pHER3 % inhibition” value: 63% for the first, 67% for the second.

Compared with B3, B4 is higher in “BT474 pHER3 % inhibition” value: 57% for the first, 58% for the second.

Going from B1 to B2, the “BT474 pHER3 IC50” value rises from 372 pM to 571 pM.

Compared with B3, B4 is lower in “BT474 pHER3 IC50” value: 2020 pM for the first, 702 pM for the second.

Compared with B1, B2 is higher in “MCF7 pHER3 % inhibition” value: 75% for the first, 83% for the second.

Compared with B5, B6 is higher in “MCF7 pHER3 % inhibition” value: 72% for the first, 77% for the second.

First: B7
Second: B8
The “MCF7 pHER3 % inhibition” value of the first is lower: 66% for the first, 69% for the second.

First: B3
Second: B4
The “MCF7 pHER3 % inhibition” value of the first is higher: 66% for the first, 62% for the second.

Going from B9 to B10, the “MCF7 pHER3 % inhibition” value falls from 73% to 66%.

Compared with B11, B12 is higher in “MCF7 pHER3 % inhibition” value: 49% for the first, 55% for the second.

First: B13
Second: B14
The “MCF7 pHER3 % inhibition” value of the first is lower: 52% for the first, 58% for the second.

Going from B15 to B16, the “MCF7 pHER3 % inhibition” value rises from 55% to 62%.

Compared with B1, B2 is higher in “MCF7 pHER3 IC50” value: 283 pM for the first, 459 pM for the second.

Compared with B5, B6 is higher in “MCF7 pHER3 IC50” value: 603 pM for the first, 1640 pM for the second.

First: B8
Second: B3
The “MCF7 pHER3 IC50” value of the first is lower: 643 pM for the first, 3070 pM for the second.

Going from B4 to B9, the “MCF7 pHER3 IC50” value falls from 788 pM to 504 pM.

First: B10
Second: B11
The “MCF7 pHER3 IC50” value of the first is lower: 505 pM for the first, 533 pM for the second.

First: B12
Second: B13
The “MCF7 pHER3 IC50” value of the first is higher: 649 pM for the first, 550 pM for the second.

Going from B14 to B15, the “MCF7 pHER3 IC50” value rises from 449 pM to 480 pM.

In the case of B16, the “MCF7 pHER3 IC50” value is reported as 795 pM.

Going from B1 to B2, the “SK-Br-3 pHER3 % inhibition” value rises from 71% to 74%.

Compared with B5, B6 is lower in “SK-Br-3 pHER3 % inhibition” value: 59% for the first, 58% for the second.

Going from B7 to B8, the “SK-Br-3 pHER3 % inhibition” value rises from 58% to 60%.

Going from B3 to B4, the “SK-Br-3 pHER3 % inhibition” value rises from 57% to 64%.

Going from B9 to B10, the “SK-Br-3 pHER3 % inhibition” value falls from 60% to 51%.

First: B11
Second: B12
The “SK-Br-3 pHER3 % inhibition” value of the first is lower: 54% for the first, 55% for the second.

B13 and B14 are the same in “SK-Br-3 pHER3 % inhibition” value: 56% for the first, 56% for the second.

First: B15
Second: B16
The “SK-Br-3 pHER3 % inhibition” value of the first is lower: 57% for the first, 59% for the second.

First: B1
Second: B2
The “SK-Br-3 pHER3 IC50” value of the first is lower: 142 pM for the first, 347 pM for the second.

First: B5
Second: B6
The “SK-Br-3 pHER3 IC50” value of the first is lower: 267 pM for the first, 657 pM for the second.

Going from B7 to B8, the “SK-Br-3 pHER3 IC50” value falls from 743 pM to 730 pM.

First: B3
Second: B4
The “SK-Br-3 pHER3 IC50” value of the first is higher: 851 pM for the first, 81 pM for the second.

First: B9
Second: B10
The “SK-Br-3 pHER3 IC50” value of the first is lower: 86 pM for the first, 277 pM for the second.

Going from B11 to B12, the “SK-Br-3 pHER3 IC50” value rises from 188 pM to 421 pM.

Compared with B13, B14 is lower in “SK-Br-3 pHER3 IC50” value: 331 pM for the first, 290 pM for the second.

Going from B15 to B16, the “SK-Br-3 pHER3 IC50” value rises from 388 pM to 546 pM.

target: T1, human HER3 endogenously expressed on …; assay: cell-based or functional assay; remark: another data set of the same source

Compared with B1, B2 is higher in “BT-474 pAkt % inhibition” value: 53% for the first, 56% for the second.

Compared with B1, B2 is lower in “BT-474 pAkt IC50” value: 586 pM for the first, 461 pM for the second.

Going from B1 to B2, the “MCF7 pAkt % inhibition” value rises from 75% to 81%.

Going from B1 to B2, the “MCF7 pAkt IC50” value falls from 385 pM to 341 pM.

Going from B1 to B2, the “SK-Br-3 pAkt % inhibition” value rises from 91% to 92%.

First: B1
Second: B2
The “SK-Br-3 pAkt IC50” value of the first is lower: 33 pM for the first, 172 pM for the second.

target: T2, Hu HER3: CD33-[Human HER3, residues 20-640]-TAG (human, UniProt P21860 20-640); assay: solution equilibrium titration (SET), IgG, ECL read-out
T2 construct: also called hu HER3-Tag; HER3-Tag; not shown: C-terminal TAG (e.g. FLAG TAG)

Compared with B1, B2 is 3.2-fold lower in Kd: 0.087 nM for the first, 0.027 nM for the second. The second binds more tightly here.
